Reference: PMC11082178

Molecular target: CRF01_AE Env consensus with redesigned HV loops, version 1 (shortest V1HV, without the 'IGNITD' motif), Env on pseudovirus (HIV-1 CRF01_AE (consensus))

Substance 10-1074 (antibody) has a neutralisation of Env pseudovirus in TZM-bl cells, IC50 of 0.544 µg/mL.
